Laboratory results reported in US20220048967A1 (published 2022).
Numbered stars: 1 amine (or outer) side, 2 acyl side, 3 side chain; on linkers, the order of the positions; unused ones are H or OH. Square brackets hold non-standard residues; d marks the D form. Side chains are listed from the residue outwards. Ends that are not written are not given here. * marks the point of attachment. C20 diacid = O=C(O)CCCCCCCCCCCCCCCCCCC(=O)*; C18 diacid = O=C(O)CCCCCCCCCCCCCCCCC(=O)*; αMePhe(2-F) = C[C@](N)(Cc1ccccc1F)C(=O)O; γGlu = O=C(O)[C@H](CCC(=O)[*:2])N[*:1]; Desaminohistidyl = O=C(CCc1c[nH]cn1)*; Desaminotyrosyl = O=C(CCc1ccc(O)cc1)*; αMeP = C[C@@]1(C(=O)O)CCCN1; AEEA = NCCOCCOCC(=O)O; Aib = CC(C)(N)C(=O)O

T1: human gastric inhibitory peptide receptor (GIPR) (human, UniProt P48546 22-466)
T1 sequence (looked up): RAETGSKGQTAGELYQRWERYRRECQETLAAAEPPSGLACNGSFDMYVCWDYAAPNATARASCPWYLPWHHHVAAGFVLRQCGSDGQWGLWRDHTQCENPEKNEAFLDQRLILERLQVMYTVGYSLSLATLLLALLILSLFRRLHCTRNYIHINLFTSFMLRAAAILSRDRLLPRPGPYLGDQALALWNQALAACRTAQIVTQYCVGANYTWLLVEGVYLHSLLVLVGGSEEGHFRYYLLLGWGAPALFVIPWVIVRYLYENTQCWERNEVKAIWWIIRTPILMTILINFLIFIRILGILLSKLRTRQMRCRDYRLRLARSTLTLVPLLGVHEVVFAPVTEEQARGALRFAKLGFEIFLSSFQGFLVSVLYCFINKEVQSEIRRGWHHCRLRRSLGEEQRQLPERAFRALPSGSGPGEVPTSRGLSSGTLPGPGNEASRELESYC

B1: Example 224 (peptide)
peptide: YXEGTXTSDYSIXLDEKAQXEFIXYLIEGGPSSGAPPPS
modifications: Y-Aib-EGT-αMeF(2F)-TSDYSI-Aib-LDEK((2-[2-(2-Amino-ethoxy)-ethoxy]-acetyl)2-(γ-Glu)-CO-(CH2)18-CO2H)AQ-Aib-EFI-(D-Glu)-YLIEGGPSSGAPPPS-NH2
B2: Example 219 (peptide)
peptide: Y[Aib]EGT[αMePhe(2-F)]TSDYSIXLDEK([AEEA-AEEA-γGlu-C18 diacid])AQ[Aib]EFI[dE]YLIEGGPSSG-NH2
modifications: not fully specified (residue 13); printed as Y-Aib-EGT-αMeF(2F)-TSDYSI-αMeF-LDEK((2-[2-(2-Amino-ethoxy)-ethoxy]-acetyl)2-(γ-Glu)-CO-(CH2)16-CO2H)AQ-Aib-EFI-(D-Glu)-YLIEGGPSSG-NH2
B3: Example 198 (peptide)
peptide: [dY][αMeP]EGTFTSDYSILLDEK([AEEA-AEEA-γGlu-C18 diacid])AQQAFIEYLIEGGPSSG-NH2
modifications: N-terminus assumed
SMILES: CC[C@H](C)[C@H](NC(=O)[C@H](CC(C)C)NC(=O)[C@H](Cc1ccc(O)cc1)NC(=O)[C@H](CCC(=O)O)NC(=O)[C@@H](NC(=O)[C@H](Cc1ccccc1)NC(=O)[C@H](C)NC(=O)[C@H](CCC(N)=O)NC(=O)[C@H](CCC(N)=O)NC(=O)[C@H](C)NC(=O)[C@H](CCCCNC(=O)COCCOCCNC(=O)COCCOCCNC(=O)CC[C@H](NC(=O)CCCCCCCCCCCCCCCCC(=O)O)C(=O)O)NC(=O)[C@H](CCC(=O)O)NC(=O)[C@H](CC(=O)O)NC(=O)[C@H](CC(C)C)NC(=O)[C@H](CC(C)C)NC(=O)[C@@H](NC(=O)[C@H](CO)NC(=O)[C@H](Cc1ccc(O)cc1)NC(=O)[C@H](CC(=O)O)NC(=O)[C@H](CO)NC(=O)[C@@H](NC(=O)[C@H](Cc1ccccc1)NC(=O)[C@@H](NC(=O)CNC(=O)[C@H](CCC(=O)O)NC(=O)[C@]1(C)CCCN1C(=O)[C@H](N)Cc1ccc(O)cc1)[C@@H](C)O)[C@@H](C)O)[C@@H](C)CC)[C@@H](C)CC)C(=O)N[C@@H](CCC(=O)O)C(=O)NCC(=O)NCC(=O)N1CCC[C@H]1C(=O)N[C@@H](CO)C(=O)N[C@@H](CO)C(=O)NCC(N)=O
B4: Example 220 (peptide)
peptide: Y[Aib]EGT[αMePhe(2-F)]TSDYSIXLDEK([AEEA-AEEA-γGlu-C18 diacid])AQ[Aib]EFI[dE]YLIEGG-NH2
modifications: not fully specified (residue 13); printed as Y-Aib-EGT-αMeF(2F)-TSDYSI-αMeF-LDEK((2-[2-(2-Amino-ethoxy)-ethoxy]-acetyl)2-(γ-Glu)-CO-(CH2)16-CO2H)AQ-Aib-EFI-(D-Glu)-YLIEGG-NH2

molecular target: T1, human gastric inhibitory peptide …; test: cell-based or functional assay

Going from [Desaminohistidyl][αMeP]EGTFTSDYSILLDEK([AEEA-AEEA-γGlu-C20 diacid])AQQAFIEYLIEGGPSSGAPPPS-NH2 [Example 201] to B1, the “hGIPR cAMP EC50 ratio” value rises from less than 0.00602 to 3.52.

First: [Desaminotyrosyl]AEGTFTSDYSILLDEK([AEEA-AEEA-γGlu-C20 diacid])AQQAFIEYLIEGGPSSGAPPPS-NH2 [Example 200]
Second: B2
The “hGIPR cAMP EC50 ratio” value of the first is lower: 0.0146 for the first, 5.86 for the second.

Going from B3 to B4, the “hGIPR cAMP EC50 ratio” value rises from less than 0.00602 to 6.3.

For [Desaminotyrosyl][Aib]EGTFTSDYSILLDEK([AEEA-AEEA-γGlu-C20 diacid])AQQAFIEYLIEGGPSSGAPPPS-NH2 [Example 199], the “hGIPR cAMP EC50 ratio” value was less than 0.00602.

Compared with [Desaminohistidyl][αMeP]EGTFTSDYSILLDEK([AEEA-AEEA-γGlu-C20 diacid])AQQAFIEYLIEGGPSSGAPPPS-NH2 [Example 201], B1 is lower in “hGIPR cAMP Rel EC50” value: greater than 30 nM for the first, 0.0545 nM for the second.

Compared with [Desaminotyrosyl]AEGTFTSDYSILLDEK([AEEA-AEEA-γGlu-C20 diacid])AQQAFIEYLIEGGPSSGAPPPS-NH2 [Example 200], B2 is 360-fold lower in “hGIPR cAMP Rel EC50” value: 12.3 nM for the first, 0.0341 nM for the second.

First: B3
Second: B4
The “hGIPR cAMP Rel EC50” value of the first is higher: greater than 30 nM for the first, 0.0315 nM for the second.

For [Desaminotyrosyl][Aib]EGTFTSDYSILLDEK([AEEA-AEEA-γGlu-C20 diacid])AQQAFIEYLIEGGPSSGAPPPS-NH2 [Example 199], the “hGIPR cAMP Rel EC50” value was greater than 30 nM.

molecular target: human GLP-1 receptor (GLP-1R) (human, UniProt P43220 24-463); test: cell-based or functional assay

In order of falling “hGLP1R cAMP EC50 ratio” value:
1. B4  1.36
2. [Desaminohistidyl][αMeP]EGTFTSDYSILLDEK([AEEA-AEEA-γGlu-C20 diacid])AQQAFIEYLIEGGPSSGAPPPS-NH2 [Example 201]  1.22
3. [Desaminotyrosyl][Aib]EGTFTSDYSILLDEK([AEEA-AEEA-γGlu-C20 diacid])AQQAFIEYLIEGGPSSGAPPPS-NH2 [Example 199]  1.11
4. B1  1.06
5. B2  1.03
6. [Desaminotyrosyl]AEGTFTSDYSILLDEK([AEEA-AEEA-γGlu-C20 diacid])AQQAFIEYLIEGGPSSGAPPPS-NH2 [Example 200]  0.573
7. B3  0.337

In order of rising “hGLP1R cAMP Rel EC50” value:
1. B4  0.0312 nM
2. B1  0.0349 nM
3. [Desaminohistidyl][αMeP]EGTFTSDYSILLDEK([AEEA-AEEA-γGlu-C20 diacid])AQQAFIEYLIEGGPSSGAPPPS-NH2 [Example 201]  0.0385 nM
4. B2  0.0403 nM
5. [Desaminotyrosyl][Aib]EGTFTSDYSILLDEK([AEEA-AEEA-γGlu-C20 diacid])AQQAFIEYLIEGGPSSGAPPPS-NH2 [Example 199]  0.0422 nM
6. [Desaminotyrosyl]AEGTFTSDYSILLDEK([AEEA-AEEA-γGlu-C20 diacid])AQQAFIEYLIEGGPSSGAPPPS-NH2 [Example 200]  0.0818 nM
7. B3  0.139 nM
